Data reported in patent publication US20250288697A1.
Like-named read-outs stand apart in the source and are kept apart here.

Legend:
[1] = molecular target: recombinant mouse TNFα (mouse) (UniProt P06804)
[2] = molecular target: recombinant mouse TNFα (mouse) (UniProt P06804); remark: listed apart in the source

UniProt P06804, sequence (P06804 80-235 limits assumed): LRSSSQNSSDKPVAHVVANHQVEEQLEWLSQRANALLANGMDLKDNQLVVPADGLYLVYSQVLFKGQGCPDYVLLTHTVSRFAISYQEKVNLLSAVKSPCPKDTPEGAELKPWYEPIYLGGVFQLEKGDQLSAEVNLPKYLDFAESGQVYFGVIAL

IC50 (read off the curve); HEK-Blue TNFα reporter (SEAP), % TNFα activity [1]: 0.9 µg/mL | IC50 (read off the curve); HEK-Blue TNFα reporter (SEAP), % TNFα activity [2]: 0.5 µg/mL
Substance: TNFR2-Fc (etanercept), vectorized (Fc fusion)
